Test [1] has as its target YFP-KYP (Arabidopsis) (UniProt Q8GZB6). Put plainly: FRET or BRET; FRET acceptor photobleaching (FRET-AB) in nuclei of N. benthamiana epidermal cells; TrAP-CFP donor, YFP-KYP acceptor; 27-30 cells per experiment. In general terms: In BRET a luciferase serves as donor, and the signal depends on an acceptor being close.
For test [2], the target named is His-MBP-KYP (Arabidopsis) (UniProt Q8GZB6).

CaLCuV TrAP-CFP (natural protein): the FRET-AB in test [1] came out at 2.7. Regarding His-GST-CaLCuV-TrAP (natural protein), in test [2], the initial velocity of KYP transmethylation of histone 3 (in vitro HMTase reconstitution with 14C-SAM; His-MBP-TrAP pre-incubated with His-GST-KYP at molar ratios 0-10); IC50 as TrAP:KYP molar ratio (TrAP:KYP molar ratio) was 2.

As for His-GST-TGMV-TrAP (natural protein), the initial velocity of KYP transmethylation of histone 3 (in vitro HMTase reconstitution with 14C-SAM; His-MBP-TrAP pre-incubated with His-GST-KYP at molar ratios 0-10); IC50 as TrAP:KYP molar ratio (TrAP:KYP molar ratio) in test [2] is 2. TGMV TrAP-CFP (natural protein) displayed an FRET-AB in test [1] of 3.82.

Source of the values: publication PMC4606454.
